Among the data in the supplement of paper PMC10567573 are protein stability index values, retold here.

B1: ALKBH7 (parent)
chain: SVICRSLPEGMGPGESGQPPPAC
B2: FCHO1 (parent)
chain: FTSSPSPFSSSSPENVEDSGLDSP
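Further: lentivirally expressed fusions sorted by FACS into six bins by GFP to DsRed ratio, PSI derived from sequencing read proportions per bin multiplied by bin number.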

Variants of B1 are the subject of the first data set. The data set can be described thus: protein stability index of a GFP-peptide fusion (GPS, HEK-293T) (PSI 1-6); higher = more stable. The settings on record: c terminus: native.
SVICRSLPEGNGPGESGQPPPAC [M11N]: the protein stability index amounted to 2.81.

On to SVICRSLPEGFGPGESGQPPPAC [M11F], for which the protein stability index was 1.49.

As to SVICRSLPEGAGPGESGQPPPAC [M11A], the protein stability index was determined as 2.37.

Regarding SVICRSLPEGPGPGESGQPPPAC [M11P], the protein stability index turned out to be 1.84.

Turning to SVICRSLPEGLGPGESGQPPPAC [M11L], the protein stability index came to 1.99.

For the variant SVICRSLPEGWGPGESGQPPPAC [M11W], the protein stability index is 1.

Consider SVICRSLPEGCGPGESGQPPPAC [M11C], for which the protein stability index came to 1.73.

On to SVICRLLPEGMGPGESGQPPPAC [S6L], for which the protein stability index is 1.6.

Turning to SVICRELPEGMGPGESGQPPPAC [S6E], the protein stability index is 3.01.

Take SVICRALPEGMGPGESGQPPPAC [S6A]: the protein stability index was 2.01.

In the case of SVICRILPEGMGPGESGQPPPAC [S6I], the protein stability index is 1.43.

On to SVICRMLPEGMGPGESGQPPPAC [S6M], for which the protein stability index stood at 1.68.

For SVICRQLPEGMGPGESGQPPPAC [S6Q], the protein stability index was found to be 2.08.

For SVICRCLPEGMGPGESGQPPPAC [S6C], the protein stability index came to 2.03.

On to SVICRDLPEGMGPGESGQPPPAC [S6D], for which the protein stability index came to 2.54.

Regarding SVICRTLPEGMGPGESGQPPPAC [S6T], the protein stability index came to 2.07.

With SVICRRLPEGMGPGESGQPPPAC [S6R], the protein stability index was found to be 1.95.

With SVICRHLPEGMGPGESGQPPPAC [S6H], the protein stability index is 2.71.

With SVICRYLPEGMGPGESGQPPPAC [S6Y], the protein stability index was 2.25.

Consider SVICRKLPEGMGPGESGQPPPAC [S6K], for which the protein stability index was 2.28.

SVICRPLPEGMGPGESGQPPPAC [S6P]: the protein stability index is 2.05.

For SAICRSLPEGMGPGESGQPPPAC [V2A], the protein stability index was 2.4.

For the variant SNICRSLPEGMGPGESGQPPPAC [V2N], the protein stability index amounted to 2.41.

On to SIICRSLPEGMGPGESGQPPPAC [V2I], for which the protein stability index is 2.77.

As to SMICRSLPEGMGPGESGQPPPAC [V2M], the protein stability index is 2.57.

In the case of SGICRSLPEGMGPGESGQPPPAC [V2G], the protein stability index came to 2.08.

With SFICRSLPEGMGPGESGQPPPAC [V2F], the protein stability index amounted to 2.78.

For SKICRSLPEGMGPGESGQPPPAC [V2K], the protein stability index was 2.14.

For STICRSLPEGMGPGESGQPPPAC [V2T], the protein stability index was found to be 2.9.

With SSICRSLPEGMGPGESGQPPPAC [V2S], the protein stability index is 2.67.

Regarding SCICRSLPEGMGPGESGQPPPAC [V2C], the protein stability index was determined as 1.73.

On to SEICRSLPEGMGPGESGQPPPAC [V2E], for which the protein stability index was 2.4.

On to SDICRSLPEGMGPGESGQPPPAC [V2D], for which the protein stability index worked out at 2.05.

With SHICRSLPEGMGPGESGQPPPAC [V2H], the protein stability index is 1.78.

For the variant SQICRSLPEGMGPGESGQPPPAC [V2Q], the protein stability index was 2.26.

In the case of SPICRSLPEGMGPGESGQPPPAC [V2P], the protein stability index amounted to 2.31.

For SVICRSSPEGMGPGESGQPPPAC [L7S], the protein stability index came to 2.14.

With SVICRSDPEGMGPGESGQPPPAC [L7D], the protein stability index turned out to be 2.98.

In the case of SVICRSRPEGMGPGESGQPPPAC [L7R], the protein stability index came to 1.85.

As to SVICRSVPEGMGPGESGQPPPAC [L7V], the protein stability index came to 1.99.

For the variant SVICRSQPEGMGPGESGQPPPAC [L7Q], the protein stability index was 2.67.

Regarding SVICRSHPEGMGPGESGQPPPAC [L7H], the protein stability index was found to be 1.63.

Take SVICRSEPEGMGPGESGQPPPAC [L7E]: the protein stability index amounted to 2.16.

Regarding SVICRSFPEGMGPGESGQPPPAC [L7F], the protein stability index was found to be 2.35.

For the variant SVICRSTPEGMGPGESGQPPPAC [L7T], the protein stability index amounted to 3.06.

As to SVICRSCPEGMGPGESGQPPPAC [L7C], the protein stability index was found to be 2.05.

For SVICRSIPEGMGPGESGQPPPAC [L7I], the protein stability index came out at 2.36.

Take SVICRSYPEGMGPGESGQPPPAC [L7Y]: the protein stability index was determined as 1.67.

Take SVICRSMPEGMGPGESGQPPPAC [L7M]: the protein stability index was found to be 1.67.

Regarding SVICRSAPEGMGPGESGQPPPAC [L7A], the protein stability index was 2.32.

With SVICRSLPEGMGCGESGQPPPAC [P13C], the protein stability index amounted to 1.92.

Take SVICRSLPEGMGDGESGQPPPAC [P13D]: the protein stability index came out at 2.4.

SVICRSLPEGMGAGESGQPPPAC [P13A]: the protein stability index amounted to 1.73.

SVICRSLPEGMRPGESGQPPPAC [G12R]: the protein stability index stood at 1.82.

Take SVICRSLPEGMEPGESGQPPPAC [G12E]: the protein stability index is 2.85.

Consider SVICRSLPEGMIPGESGQPPPAC [G12I], for which the protein stability index stood at 1.87.

For the variant SVICRSLPEGMSPGESGQPPPAC [G12S], the protein stability index was 1.87.

As for SVICRSLPEGMPPGESGQPPPAC [G12P], the protein stability index came out at 2.37.

On to SVICRSLPEGMDPGESGQPPPAC [G12D], for which the protein stability index was 2.52.

SVICRSLPEGMYPGESGQPPPAC [G12Y]: the protein stability index was 2.04.

As for SVICRSLPEGMMPGESGQPPPAC [G12M], the protein stability index was found to be 2.68.

On to SVICRSLPEGMFPGESGQPPPAC [G12F], for which the protein stability index amounted to 1.54.

For SVICRSLPEGMWPGESGQPPPAC [G12W], the protein stability index was determined as 1.09.

Consider SVICRSLPEGMAPGESGQPPPAC [G12A], for which the protein stability index came out at 2.17.

SVICRSLPEGMHPGESGQPPPAC [G12H]: the protein stability index was 1.69.

Consider SVICRSLPEGMKPGESGQPPPAC [G12K], for which the protein stability index came to 2.22.

In the case of SVICRSLPEGMLPGESGQPPPAC [G12L], the protein stability index was 1.85.

In the case of SVICRSLPEGMQPGESGQPPPAC [G12Q], the protein stability index was 2.

As to SVICRSLPEGMNPGESGQPPPAC [G12N], the protein stability index amounted to 2.09.

Regarding SVICRSLVEGMGPGESGQPPPAC [P8V], the protein stability index was 1.42.

In the case of SVICRSLEEGMGPGESGQPPPAC [P8E], the protein stability index was determined as 2.46.

As to SVICRSLNEGMGPGESGQPPPAC [P8N], the protein stability index is 2.48.

Regarding SVICRSLMEGMGPGESGQPPPAC [P8M], the protein stability index was found to be 2.93.

With SVICRSLAEGMGPGESGQPPPAC [P8A], the protein stability index is 2.08.

For SVICRSLSEGMGPGESGQPPPAC [P8S], the protein stability index was 2.32.

Regarding SVICRSLTEGMGPGESGQPPPAC [P8T], the protein stability index was 1.67.

On to SVICRSLQEGMGPGESGQPPPAC [P8Q], for which the protein stability index worked out at 2.53.

Turning to SVICRSLWEGMGPGESGQPPPAC [P8W], the protein stability index was 2.01.

SVICRSLIEGMGPGESGQPPPAC [P8I]: the protein stability index was determined as 1.65.

With SVICRSLGEGMGPGESGQPPPAC [P8G], the protein stability index is 2.19.

With SVICRSLHEGMGPGESGQPPPAC [P8H], the protein stability index is 2.94.

In the next data set the parent is B2. Described as above. The following applies: c terminus: a fixed tail appended.
FTSSPSPFSSSSPENVEDSGLDSN [P24N]: the protein stability index was 1.81.

As to FTSSPSPFSSSSPENVEDSGLDSI [P24I], the protein stability index came to 1.96.

As to FTSSPSPFSSSSPENVEDSGLDSW [P24W], the protein stability index turned out to be 1.54.

For the variant FTSSPSPFSSSSPENVEDSGLDSE [P24E], the protein stability index came to 1.84.

FTSSPSPFSSSSPENVEDSGLDSK [P24K]: the protein stability index worked out at 1.96.

Regarding FTSSPSPFSSSSPENVEDSGLDSF [P24F], the protein stability index turned out to be 1.89.

As to FTSSPSPFSSSSPENVEDSGLDSM [P24M], the protein stability index stood at 2.24.

Consider FTSSPSPFSSSSPENVEDSGLDSV [P24V], for which the protein stability index was found to be 2.02.

In the case of FTSSPSPFSSSSPENVEDSGLDSL [P24L], the protein stability index stood at 1.98.

For the variant FTSSPSPFSSSSPENVEDSGLDSH [P24H], the protein stability index turned out to be 2.42.

As to FTSSPSPFSSSSPENVEDSGLDSY [P24Y], the protein stability index was 2.35.

For the variant FTSSPSPFSSSSPENVEDSGLDSR [P24R], the protein stability index is 2.47.

As to FTSSPSPFSSSSPENVEDSGLDSS [P24S], the protein stability index turned out to be 1.94.

As to FTSSPSPFSSSSPENVEDSGLDSQ [P24Q], the protein stability index is 2.32.

As to FTSSPSPFSSSSPENVEDSGLDSG [P24G], the protein stability index is 1.77.

Turning to FTSSPSPFSSSSPENVEDSGLDST [P24T], the protein stability index was 2.08.
